One test addresses GST-IRE1α-C (aa 468-977) (human, UniProt O75460 468-977). Briefly: cell-based or functional assay.
A further test deals with T1, bovine serum albumin (bovine, UniProt P02769 25-607).
T1 construct: serum albumin, bovine; negative control of the biolayer interferometry; also called BSA; source: bought: Sigma-Aldrich
In words: BLI; BLItz (ForteBio); biotinylated fortilin immobilised on streptavidin-coated biosensors (25 μg/mL, 600 s), buffer exchange in PBS; analyte at various concentrations for 180 s, dissociation in PBS for 300 s; three independent experiments. The conditions noted are these: both partners purified. Background: Biolayer interferometry detects binding as a change in optical thickness at a sensor tip.

GST-IRE1α-C (aa 468-977), sequence (O75460 468-977): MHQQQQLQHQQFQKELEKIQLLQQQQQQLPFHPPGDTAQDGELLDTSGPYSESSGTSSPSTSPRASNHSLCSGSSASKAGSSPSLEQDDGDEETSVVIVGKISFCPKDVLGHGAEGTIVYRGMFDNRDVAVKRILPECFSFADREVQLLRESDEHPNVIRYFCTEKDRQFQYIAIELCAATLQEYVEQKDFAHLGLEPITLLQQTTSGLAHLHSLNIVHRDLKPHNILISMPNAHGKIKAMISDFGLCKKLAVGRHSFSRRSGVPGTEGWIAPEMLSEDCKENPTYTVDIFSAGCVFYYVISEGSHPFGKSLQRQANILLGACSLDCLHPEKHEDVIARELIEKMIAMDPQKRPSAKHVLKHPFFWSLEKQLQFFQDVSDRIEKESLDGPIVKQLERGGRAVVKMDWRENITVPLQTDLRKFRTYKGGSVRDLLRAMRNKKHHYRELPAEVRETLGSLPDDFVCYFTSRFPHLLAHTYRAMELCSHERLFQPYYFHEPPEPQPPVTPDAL
T1 sequence (P02769 25-607): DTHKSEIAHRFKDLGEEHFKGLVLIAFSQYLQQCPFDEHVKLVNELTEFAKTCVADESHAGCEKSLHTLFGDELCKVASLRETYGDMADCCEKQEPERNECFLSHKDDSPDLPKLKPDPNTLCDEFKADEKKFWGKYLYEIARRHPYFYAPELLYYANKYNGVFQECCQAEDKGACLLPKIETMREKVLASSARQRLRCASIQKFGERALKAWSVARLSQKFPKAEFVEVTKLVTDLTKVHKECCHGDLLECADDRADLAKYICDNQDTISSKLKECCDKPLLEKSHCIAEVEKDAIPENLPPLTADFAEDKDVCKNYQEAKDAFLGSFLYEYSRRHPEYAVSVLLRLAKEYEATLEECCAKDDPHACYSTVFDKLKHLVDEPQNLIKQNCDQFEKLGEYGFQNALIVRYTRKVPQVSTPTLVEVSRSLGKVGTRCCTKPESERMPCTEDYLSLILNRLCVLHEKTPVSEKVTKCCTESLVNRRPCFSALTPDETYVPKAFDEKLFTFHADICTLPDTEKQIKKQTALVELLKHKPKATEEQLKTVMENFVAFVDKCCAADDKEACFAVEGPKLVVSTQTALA

B1: recombinant human fortilin (Strep-tag II), biotinylated (natural protein, UniProt P13693 1-172, looked up)
chain: MIIYRDLISHDEMFSDIYKIREIADGLCLEVEGKMVSRTEGNIDDSLIGGNASAEGPEGEGTESTVITGVDIVMNHHLQETSFTKEAYKKYIKDYMKSIKGKLEEQRPERVKPFMTGAAEQIKHILANFKNYQFFIGENMNPDGMVALLDYREDGVTPYMIFFKDGLEMEKC
modifications: biotinylated (sites not given)
notes: fortilin (translationally controlled tumor protein), human, described as a 172-amino-acid polypeptide; cDNA encoding human fortilin cloned into pESG-IBA5; Biotinylated for BLI; also called translationally controlled tumor protein; Strep-tagged fortilin; source: 293T cells stably expressing it, purified (Strep-Tactin-Superflow resin)
Turning to B1, the “in vitro IRE1α kinase activity: incorporation of γ-33P from [γ-33P]ATP into myelin basic protein; IC50 of fortilin” value with GST-IRE1α-C (aa 468-977) stood at 0.77 µM. In the test with bovine serum albumin, this molecule came in with a dissociation constant (Kd) of 1050 µM.

As a reminder, the Kd is the free concentration of one partner at which half of the binding sites on the other are occupied at equilibrium, for simple one-to-one binding. The low end stands for higher affinity, the high end for lower affinity.

The values above are taken from article PMC5446404, “Fortilin binds IRE1α and prevents ER stress from signaling apoptotic cell death” (Nature Communications, 2017).
